# Test results: patent US8956838B2, “Carboxyl esterase polypeptides” (B.R.A.I.N., priority 2006, dated 2015)
# What was measured:
# Type in all cases: biochemical
# [1] = Enzyme activity with pNP-acylesters of different chain length; settings: 4 mM, 45° C., pH 7.2
# Method: Enzyme activity tests were performed by incubating the enzyme with 4 mM substrate at 45° C. in 100 mM Tris-HCl buffer at pH 7.2, unless otherwise indicated. The reaction was measured at 410 nm. One unit is defined as the amount of enzyme catalyzing the appearance of 1 μmol of free p-nitrophenol/min. Enzyme activity against pNP-acylesters (butyrate, valerate, caproate, octanoate, decanoate and palmitate) was tested under the above conditions. […] The enzyme according to SEQ ID NO: 6 converted pNP-caproate with a specific activity of 80.0 U/mg.
# [2] = Titration assay with triglycerides; settings: 10 mM, 37° C., pH 7.0
# Method: (§1) Enzyme activities on the substrates triacetin, tripropionin, tributyrin, tricaprylene, trilaurin and vinyl-substrates (vinyl-acetate, ˜propionate, ˜butyrate, ˜caproate, ˜caprylate and ˜laurate) were determined using a standard titration assay with minor modifications. Tests were performed with a Methrom 718 STAT potentiometric titrator (Herisau, Switzerland) and by using 10 mM NaOH for titration. The substrates at 10 mM concentration were emulsified in 20 ml reaction buffer containing 2 mM Tris/HCl pH 7.0. After addition of 7.5 μg of the purified enzyme the NaOH consumption was recorded at a reaction temperature of 37° C. One unit was defined as the amount of enzyme that released […] of fatty acid per min.
# [3] = Titration assay with vinyl acid esters; settings: 10 mM, 37° C., pH 7.0
# Method: as §1
# [4] = Solvent stability, residual activity; settings: 1 h at 30° C., measured at 45° C.
# Method: The stability of the enzymes was determined in the presence of the following solvents: DMSO, isopropanol, methanol, dimethylformamide, acetone and acetonitrile. The enzymes were incubated for 1 hour at 30° C. in the presence of either 15% (v/v) or 30% (v/v) of the solvents and the residual activity was measured at 45° C. The substrate used was pNP-butyrate.
# [5] = Substrate specificity on pNP-substrates with importance for pharmaceutical products; settings: 30 minute, 40° C., pH 7.5
# Method: The substrate range of the two enzymes was determined using pNP esters of the following: benzoate, 2-(4-isobutylphenyl)propanoate (Ibuprofen), 2-phenylpropanoate, 3-phenylbutanoate, cyclohexanoate, 2-(3-benzoylphenyl)propanoate, 2-naphthoate, 1-naphthoate, adamantanoate and 2-(6-methoxynaphthalene-2-yl)propanoate (Naproxen). Activity was determined at 410 nm after 30 minute incubation at 40° C. The reaction mixture was 950 μl buffer (100 mM Tris, pH 7.5), 50 μl substrate (5 mg/ml in DMSO) and 1 μg enzyme.
# [6] = Effect of bivalent cations and EDTA on catalytic activity
# [7] = Determination of pH optimum by titration; settings: incubation for up to 48 hours, up to pH 12 (data not shown)
# Method: The pH optimum for the enzymes was determined using tributyrin as substrate. The incubation conditions were 20 ml buffer (2.5 mM phosphate buffer [pH 4-7], 2.5 mM Tris/HCl buffer [pH 7-11] or 2.5 mM glycine buffer [pH 9-11], supplemented with 100 mM NaCl) stirred at a constant temperature of 37° C. The esterase substrate tributyrin (final concentration of 2 mM) was added to 5 ml of the corresponding buffer at 37° C., emulsified and added to the whole preparation. This substrate emulsion was held constant at the correct pH automatically by the titrator (718 STAT Titrino; Metrohm, Herisau, Switzerland) for 2 min and this served as the control. […]
# [8] = Determination of thermal stability
# Method: To assay the thermostability of the enzymes they were incubated at different temperatures for one hour and the residual activity assayed at 10 minute intervals. Residual activity was measured using pNP-caproate as substrate as described above.
molecule,measurement,setting,value
"EstCE1: recombinant enzyme having carboxyl esterase activity, amino acid sequence SEQ ID NO: 4, family VIII of bacterial lipolytic enzymes (protein, metagenomic sequence) MSIADQSLAKRVQGVSQQAIDEGRIVGSVVLIARHGRVIYANASGYADREQKKPMVRETQFRLSSVSKPYITLAAMRMIEQQKLGLDDTVSRWLPWFTPALADGVRPPIKIRHLLSHTAGLDYRLSQPAEGPYHRLGIKDGMELSSLTLEQNLRLLAQADLLAEPGSEFRYSLAIDVLGAVLEQVAGEPLPQVFNHWVAQPLGLRNTGFYTTDVDNLATAYHDTAAEPEPIRDGMLLTLPEGFGFEIELAPSRALDAQAYPSGGAGMVGDADDVLQLVETLRTGKEGILQPATAALMRQAHVGSHAETQGPGWGFGFGGAVLEDAQLAATPQHNGTLQWGGVYGHSWFYDPQAAISVVALTNTAFEGMSGRYPLQIRDAVYGTNEPTR",specific activity,[1]; substrate pNP-butyrate (C4),31.1 U/mg
same,specific activity,[1]; substrate pNP-caproate (C6),7.4 U/mg
same,specific activity,[1]; substrate pNP-decanoate (C10),0.9 U/mg
same,specific activity,[1]; substrate pNP-octanoate (C8),1.0 U/mg
same,specific activity,[1]; substrate pNP-palmitate (C16),0.0 U/mg
same,specific activity,[1]; substrate pNP-valerate (C5),22.9 U/mg
same,specific activity,[2]; substrate triacetin (C2),26.7 U/mg
same,specific activity,[2]; substrate tributyrin (C4),54.7 U/mg
same,specific activity,[2]; substrate tricaprylin (C8),0 U/mg
same,specific activity,[2]; substrate trilaurin (C12),0 U/mg
same,specific activity,[2]; substrate tripropionin (C3),33.3 U/mg
same,specific activity,[3]; substrate vinyl acetate (C2),13.3 U/mg
same,specific activity,[3]; substrate vinyl butyrate (C4),16.0 U/mg
same,specific activity,[3]; substrate vinyl caproate (C6),0 U/mg
same,specific activity,[3]; substrate vinyl caprylate (C8),0 U/mg
same,specific activity,[3]; substrate vinyl laurinate (C12),0 U/mg
same,specific activity,[3]; substrate vinyl propionate (C3),13.3 U/mg
same,Residual activity after 1 h incubation in the presence of solvent,[4]; 15% (v/v) Acetone,14%
same,Residual activity after 1 h incubation in the presence of solvent,[4]; 15% (v/v) Acetonitrile,0%
same,Residual activity after 1 h incubation in the presence of solvent,[4]; 15% (v/v) DMSO,103%
same,Residual activity after 1 h incubation in the presence of solvent,[4]; 15% (v/v) Dimethylformamid,34%
same,Residual activity after 1 h incubation in the presence of solvent,[4]; 15% (v/v) Isopropanol,75%
same,Residual activity after 1 h incubation in the presence of solvent,[4]; 15% (v/v) Methanol,90%
same,Residual activity after 1 h incubation in the presence of solvent,[4]; 30% (v/v) Acetone,0%
same,Residual activity after 1 h incubation in the presence of solvent,[4]; 30% (v/v) Acetonitrile,0%
same,Residual activity after 1 h incubation in the presence of solvent,[4]; 30% (v/v) DMSO,17%
same,Residual activity after 1 h incubation in the presence of solvent,[4]; 30% (v/v) Dimethylformamid,0%
same,Residual activity after 1 h incubation in the presence of solvent,[4]; 30% (v/v) Isopropanol,23%
same,Residual activity after 1 h incubation in the presence of solvent,[4]; 30% (v/v) Methanol,0%
same,specific activity,[5]; pNP-ester of 1-naphthoate,0 U/mg
same,specific activity,[5]; pNP-ester of 2-(3-benzoylphenyl) propanoate,0.8 U/mg
same,specific activity,[5]; pNP-ester of 2-(4-isobutylphenyl) propanoate (Ibuprofen),0 U/mg
same,specific activity,[5]; pNP-ester of 2-(6-methoxy-naphthalen-2-yl) propanoate (Naproxen),0 U/mg
same,specific activity,[5]; pNP-ester of 2-naphthoate,0 U/mg
same,specific activity,[5]; pNP-ester of 2-phenylpropanoate,0 U/mg
same,specific activity,[5]; pNP-ester of 3-phenylbutanoate,1.0 U/mg
same,specific activity,[5]; pNP-ester of adamantanoate,0 U/mg
same,specific activity,[5]; pNP-ester of benzoate,12.1 U/mg
same,specific activity,[5]; pNP-ester of cyclohexanoate,16.8 U/mg
same,stimulatory effect on catalytic activity,[6]; in the presence of Ca^2+,118%
same,stimulatory effect on catalytic activity,[6]; in the presence of Mg^2+,108%
same,"stability under alkaline conditions, in words",[7],extremely stable with little loss of activity
same,"thermal stability, in words",[8]; incubated for at least 60 minutes at 40° C.,without a major loss of activity
same,"thermal stability, in words",[8]; incubation at temperatures above 45° C. for more than 60 minutes (data not shown),rapid inactivation
